Data reported in the nanobody polyreactivity screen of Harvey et al. (2022).

Assay: yeast display, Sf9 membrane polyspecificity reagent, FACS + sequencing; frameworks hold sequencing errors
Summary of the method: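 Nanobodies came from a synthetic yeast display library in Saccharomyces cerevisiae BJ5465, induced with galactose for 36–48 hours and stained for 1 hour at 4 °C with 10% biotinylated, detergent-solubilized Sf9 membrane reagent. Cells were enriched on streptavidin microbeads and then FACS-sorted, with low and high (top ~1%) gates set on anti-HA fluorescence for expression and streptavidin fluorescence for reagent binding. Each polyreactivity label reflects the gate a clone came from. Genes were amplified by colony PCR, sequenced by MiSeq 2 × 250 and filtered by CDR length.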
With “QVQLVESGGGLVQAGGSLRLSCAASGRTFVRNAMGWYRQAPGKERELVAAINSGGSTNYADSLKGRFTISRDNPKNTVYLQMNSLKPEDTAVYYCNAPRQHVGNGNYWGQGTQVTVSS” the “polyreactivity (PSR sort gate)” value was “low polyreactivity”. In the case of “QVQLVESGGGLVQAGGSLRLSCAASGRTFVRYAMGWYRQAPGKERELVAAISTSGGNTYYADSVKGRFTISRDNAKNTVYLQMNSLKPEDTAVYYCAKDRGPNAKFDYWGQGTQVTVSS”, the “polyreactivity (PSR sort gate)” value is reported as “low polyreactivity”. For “QVQLVESGGGLVQAGGSLRLSCAASGRTFVRYAMGWYRQAPGKERELVAAITSGGSTYADSVKGRFTISRDNAKNTVYLQMNSLKPEDTAVYYCAARRYPSYGSWGQGTQVTVSS”, the “polyreactivity (PSR sort gate)” value was “low polyreactivity”. For “QVQLVESGGGLVQAGGSLRLSCAASGRTFVRYAMGWYRQAPGKERELVARITSRGTSTYYADSVKGRFTISRDNAKNTVYLQMNSLKPEDTAVYYCNKVRTFRDKSRYDYWGQGTQVTVSS”, the “polyreactivity (PSR sort gate)” value was “low polyreactivity”. In the case of “QVQLVESGGGLVQAGGSLRLSCAASGRTFVRYAMGWYRQAPGKERELVARITSSGGSTYYADSVKGRFTISRDNAKNTVYLQMNSLKPEDTAVYYCAKDTAFYRFQGHYGYWGQGTQVTVSS”, the “polyreactivity (PSR sort gate)” value is reported as “high polyreactivity”. For “QVQLVESGGGLVQAGGSLRLSCAASGRTFVSYAMGWYRQAPGKERELVAAIRWGTGSRTYYADSVKGRFTISRDNAKNTVYLQMNSLKPEDTAVYYCAKTDWYPYGYWGQGTQVTVSS”, the “polyreactivity (PSR sort gate)” value was “low polyreactivity”. With “QVQLVESGGGLVQAGGSLRLSCAASGRTFVSYAMGWYRQAPGKERELVAAIRYRGGSTYYADSVKGRFTISRDNAMNTVYLQMNSLKPEDTAVYYCAANQGRYNIYSNYDYWGQGTQVTVSS” the “polyreactivity (PSR sort gate)” value was “high polyreactivity”. In the case of “QVQLVESGGGLVQAGGSLRLSCAASGRTFVTNTMGWYRQAPGKEREFVAAITWNGGGTYYADSVKGRFTISRDNAKNTVYLQMNSLKPEDTAVYYCAARGRTDSYWRFYHWGQGTQVTVSS”, the “polyreactivity (PSR sort gate)” value is reported as “high polyreactivity”. In the case of “QVQLVESGGGLVQAGGSLRLSCAASGRTFVTYAMGWYRQAPGKERELVAGISRRGGRTYYADSVKGRFTISRDNAKNTVYLQMNSLKPEDTAVYYCAAYDRITRYDYWGQGTQVTVSS”, the “polyreactivity (PSR sort gate)” value is reported as “high polyreactivity”. For “QVQLVESGGGLVQAGGSLRLSCAASGRTFVTYGMGWYRQAPGKERQLVAAISKRGSRTYYADSVKGRFTISRDNAKNTVYLQMNSLKPEDTAVYYCNAETYRTTYDYWGQGTQVTVSS”, the “polyreactivity (PSR sort gate)” value was “high polyreactivity”. For “QVQLVESGGGLVQAGGSLRLSCAASGRTFVVNAMGGYRQAPGKERELVAAITYSGDTTYYADSVKGRFTISRDNAKNTVYLQMNSLKPEDTAVYYCAADTGVVSPPAGLLIGPFDSWGQGTQVTVSS”, the “polyreactivity (PSR sort gate)” value was “low polyreactivity”. In the case of “QVQLVESGGGLVQAGGSLRLSCAASGRTFVWYAMGWYRHAPGKERELVAAISRSGGSTYYADSVKGRFTISRDNAKNTVYLQMNSLKPEDTAVYYCNAQWYVYDYYEFDYWGQGTQVTVSS”, the “polyreactivity (PSR sort gate)” value is reported as “high polyreactivity”. In the case of “QVQLVESGGGLVQAGGSLRLSCAASGRTFVWYDMGWYRQAPGKERELVAAITKRGTSTYYADSVKGRFTISRDNGKNTVYLQMNRLKPEDTAVYYCAVEYIYWFHSRSSYIYDYWGQGTQVTVSS”, the “polyreactivity (PSR sort gate)” value is reported as “low polyreactivity”. With “QVQLVESGGGLVQAGGSLRLSCAASGRTFVYNAMGWYRQAPGKERELVAAISSDGASTYYADSVKGRFTISRDNAKNTVYLQMNSLKPEDTAVYYCAADFSYYSYEHYYWGQGTKVTVSS” the “polyreactivity (PSR sort gate)” value was “low polyreactivity”. With “QVQLVESGGGLVQAGGSLRLSCAASGRTFVYNAMGWYRQAPGKERELVAAISSDGASTYYADSVKGRFTISRDNAKNTVYLQMNSLKPEDTAVYYCAADFSYYSYEHYYWVQGTQVTVSS” the “polyreactivity (PSR sort gate)” value was “low polyreactivity”. For “QVQLVESGGGLVQAGGSLRLSCAASGRTFVYNAMGWYRQAPGKERELVAAITWNGGSTYYADSVKGRFTISRDNAKNTVYLQMNSLKPEDTAVYYCNRDVRYVGPSGFDYWGQGTQVTVSS”, the “polyreactivity (PSR sort gate)” value was “high polyreactivity”. With “QVQLVESGGGLVQAGGSLRLSCAASGRTFVYYAMGRYRQAPGKERELVAAISGSGGSTYYADSVKGRFTISRDNAKNTVYLQMISLKPEDTAVYYCAAGPRGRYRYGYWGQGTQVTVSS” the “polyreactivity (PSR sort gate)” value was “high polyreactivity”. In the case of “QVQLVESGGGLVQAGGSLRLSCAASGRTFVYYAMGWYRPAPGKERELVAAISRSGSTYYADSVKGRFTISRDNAKNTVYLQMNSLKPEDTAVYYCARPGGPDRTSSPYPYPYGYWGQGTQVTVSS”, the “polyreactivity (PSR sort gate)” value is reported as “low polyreactivity”. With “QVQLVESGGGLVQAGGSLRLSCAASGRTFVYYAMGWYRQAPGKEREFVAAISRSGGHTSYADSVKGRFTISRDNAKNTVYLQMNSLKPEDTAVYYCAAEKRTQPTSREYYWGQGTQVTVSS” the “polyreactivity (PSR sort gate)” value was “high polyreactivity”. In the case of “QVQLVESGGGLVQAGGSLRLSCAASGRTFVYYAMGWYRQAPGKEREFVAAISRSGGRTSYADSVKGRFTISRDKAKNTVYLQMNSLKPEDTAVYYCAAKVRQWRQGSYSSQYDYWGQGTQVTVSS”, the “polyreactivity (PSR sort gate)” value is reported as “high polyreactivity”. In the case of “QVQLVESGGGLVQAGGSLRLSCAASGRTFVYYAMGWYRQAPGKERELVAAIRSGGSTNYADSVKGLFSISRDTAKNTVSLQMNSLKPEDTSVYYCNAVHYYYYKGDYWGQGTQVTVSS”, the “polyreactivity (PSR sort gate)” value is reported as “high polyreactivity”. With “QVQLVESGGGLVQAGGSLRLSCAASGRTFVYYAMGWYRQAPGKERELVAAISSRGGSTYYADSVKGRFTISRDYAKNTVYLQMNSLKPEDTAVYYCAARARRRYYYWGQGTQVTVSA” the “polyreactivity (PSR sort gate)” value was “high polyreactivity”. In the case of “QVQLVESGGGLVQAGGSLRLSCAASGRTFVYYAMGWYRQAPGKERELVAAISTGGSTNYADSVKGRFTISRDNAKNTVYLQMNSLKPEDTAVYYCAAQYYISISKYDYWGQGTQVTVSS”, the “polyreactivity (PSR sort gate)” value is reported as “low polyreactivity”. With “QVQLVESGGGLVQAGGSLRLSCAASGRTFVYYAMGWYRQAPGNERELVASISSGAGSPNYADSVKGRYTISRDNAKNTGYVQMNSLKPEDTAVYYCAVDTPRYRYYRTSYDYWRQGTQVTVSS” the “polyreactivity (PSR sort gate)” value was “low polyreactivity”. In the case of “QVQLVESGGGLVQAGGSLRLSCAASGRTFWANAMGWYRQAPGKERELVAAITIGGRTYYADSVKGRFTISRDNAKNTVYIQMNSLKPEDTAVYYCNAGSRRPFPAESGYWGQGTQVTVSS”, the “polyreactivity (PSR sort gate)” value is reported as “low polyreactivity”. In the case of “QVQLVESGGGLVQAGGSLRLSCAASGRTFWANAMGWYRQAPGKERELVAAITSGGSTNYADSVKGRFTISRDNAKNTVYLQMNSLKPEDTAVYYCAAAINRYRRTFNYWGQGTQVTVSS”, the “polyreactivity (PSR sort gate)” value is reported as “high polyreactivity”. For “QVQLVESGGGLVQAGGSLRLSCAASGRTFWDYGMGWYRQAPGKERELVPTISGNGGDTYYADSVKGRFTISRDNAKNTVYLQMNSLKPEDTAVYFCAADYRFYRTDRHYDYWGQGTQVTVSS”, the “polyreactivity (PSR sort gate)” value was “low polyreactivity”. For “QVQLVESGGGLVQAGGSLRLSCAASGRTFWDYMGWYRQAPGKERELVATITSSGGSTYYADSVKGRFTISRDNAKNTVYLQMNSLKPEDTAVYYCNADWYLWSTFAQGYGYWGQGTQVTVSS”, the “polyreactivity (PSR sort gate)” value was “high polyreactivity”. In the case of “QVQLVESGGGLVQAGGSLRLSCAASGRTFWFYSMAWYRQAPGKERELVATINYRGGTTYYADSVKGRFTISRDNAKNTVYLQMNSLKPEDTAVYYCAVRPTRTFIYDYWGQGTQVTVSS”, the “polyreactivity (PSR sort gate)” value is reported as “high polyreactivity”. With “QVQLVESGGGLVQAGGSLRLSCAASGRTFWGYAMGWYRQAPGKERELVAAISLSGGRTNYADSVKGRFTISRDNAKNTVYLQMNSLKPEDTAVYYCAADKRPDGRMDYWGQGTQVTVSS” the “polyreactivity (PSR sort gate)” value was “high polyreactivity”.
